PMC6524640 (2019)
No end group written: not given here.

Molecular target: calmodulin (Homo sapiens, UniProt P0DP23)
Assay: NMR titration

Row | Kd | Binder
1 | 1440 µM | HFGKTGSSGPLQ (not fully specified) [CEACAM1 short form peptide SFWT]
2 | 760 µM | HFGKTGRASDQR (not fully specified) [CEACAM1 long form peptide LFWT]
